# B1: NP137: humanized anti-netrin-1 monoclonal antibody, VH SEQ ID NO: 22, VL SEQ ID NO: 16, human IgG1 (antibody, V domains shown)
# VH: QVQLQQSGPGLVKPSQTLSLTCAISGYTFTSYNMHWVRQATGQGLEWMGAIYPGNGDTSYNQKFKGRLTISKDTSKNQVVLTMTNMDPVDTATYYCARGGTGFAYWGQG
# VL: DIQMTQSPSSLSASVGDRVTITCKASQSVSNDVAWYQQKPGQAPRLLIYYASNRYTGIPPRFSGSGYGTDFTLTINNIESEDAAYYFCQQDYSSPWTFGQG
# modifications: human IgG1 constant region; humanized variant; MISC_FEATURE - CDR according to IGMT
# Legend:
# caspase-3 = assay: UNC5B-induced caspase-3 activity in HeLa UNC5B cells; format: cell-based, Human; settings: doxycycline 2 μg/mL; 18 hours
# Protocol: Stable Hela cells inducible for UNC5B (HeLa UNC5B) were treated with doxycycline (Dox) at 2 μg/mL, in combination with the indicated doses of the proteasome inhibitors MG132 and bortezomib (BTZ).
# Caspase-3 and -9 activity assays were performed as described previously (Paradisi et al., 2013; Paradisi et al., 2009). Briefly, HCT116 and HeLa cells were seeded and treated as for DNA fragmentation assay. Cells were then collected and caspase-3/caspase 9 activity assays were performed using the Caspase-3/Caspase-9 Fluorometric Assay Kit (BioVision, Milpitas, CA, USA), according to the manufacturer's instructions. Caspase activity (activity/min/mg of protein) was calculated from a 1 h kinetic cycle reading on a spectrofluorometer (405 nm/510 nm, Infinite F500, Tecan, Männedorf, Switzerland).
# Mcl-1 = Mcl-1 immunohistochemistry on paired biopsies of phase I trial patients (NCT02977195); format: in vivo, human
# Protocol: FIG. 7. Netrin-1 interference triggers Mcl-1 degradation in vitro and in vivo. (A,B): Netrin-1 silencing triggers Mcl-1 degradation. Breast cancer MCF7 cells were transfected with scramble (siCTRL) or netrin-1 (siNet) targeting siRNAs. 48 hours after transfection, cells were lysed by scraping and sonication in SDS-containing buffer. Protein levels of Mcl-1, netrin-1, and UNC5B, as well as B-actin and Ku80, used as housekeeping genes, were evaluated by western blot (A). Relative Mcl-1 protein levels, normalized to β-actin or Ku80, are shown in (B) (n=2, *** p<0.001, **** p<0.0001, ordinary two-way ANOVA with Sidak's multiple comparisons test). Activation of endogenous UNC5B upon netrin-1 silencing decreased Mcl-1 protein levels. Values are given as means±SEM. (C,D): Netrin-1 interference degrades Mcl-1 in a syngeneic breast cancer model. Stable EMT6 cells, constitutively over-expressing human Mcl-1, were engrafted in BALB/c mice. Once tumors reached a volume of 100 mm^3, mice were treated with Iso-mAb or NP137 antibodies and sacrificed 8 hours after treatment. Protein levels of Mcl-1 were then evaluated by western blot (C). […] Mcl-1 protein was quantified in paraffin-embedded slices on paired C1D1 and C3D1 biopsies and compared with clinical benefit (stable disease, SD, or progression disease, PD, at 6 weeks). Mcl-1 intensity was assessed in all, PD or SD biopsies (E) (n=6, Wilcoxon test). […]
# The NP137 antibody is currently being assessed in several phase I and II clinical trials, in patients with advanced solid tumours. […] Mcl-1 presence was thus analysed by immunohistochemistry.
# For histological examination of tumours engrafted in nude mice, ex vivo breast cancer slices, and from human clinical trial, tumours were fixed in 10% buffered formalin and embedded in paraffin. […] Quantification of caspase-3- and Mcl-1-positive cells was performed with HALO software and adapted algorithms cytonuclear v2.0.8 6 (Indica Labs, Albuquerque, NM, USA). MCL1 intensity, has been calculated in percentage over the surface of tumour cells. […]
Molecule,UNC5B-induced caspase-3 activation (caspase-3),"patient tumours with reduced Mcl-1 levels (Mcl-1; all twelve patients, 14 mg/kg once every two weeks, C3D1 vs C1D1 biopsies)",patients with Mcl-1 decrease (Mcl-1; six patients with progression disease (PD) at 6 weeks),patients with Mcl-1 decrease (Mcl-1; six patients with stable disease (SD) at 6 weeks)
CC(C)C[C@H](NC(=O)[C@H](Cc1ccccc1)NC(=O)c1cnccn1)B(O)O [bortezomib],suppressed,–,–,–
B1,–,nine out of the twelve,three of the six,six patients with SD showed Mcl-1 decrease
